In assay [1] the target is T1, human SIAH1-SBD (91–282) (human, UniProt Q8IUQ4-1 91-282).
T1 sequence (looked up): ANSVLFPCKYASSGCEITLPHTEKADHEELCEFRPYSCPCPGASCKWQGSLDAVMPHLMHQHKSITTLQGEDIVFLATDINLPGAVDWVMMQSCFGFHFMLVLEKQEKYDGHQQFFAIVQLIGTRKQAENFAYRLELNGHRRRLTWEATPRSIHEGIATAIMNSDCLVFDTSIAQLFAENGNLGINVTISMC
Description: ITC. In general terms: Isothermal titration calorimetry measures the heat released or taken up as one component is titrated into another.

In assay [2] the target is T1, human SIAH1-SBD (91–282). As to the kind of experiment: pull-down.

The term Kd denotes a measure of binding affinity in units of concentration. High values mean lower affinity, low ones higher affinity.

B1: 20-residue human AXIN1 peptide (residues 375–394) (peptide, UniProt O15169-1 375-394, looked up)
peptide: YRVPKEVRVEPQKFAEELIH
On to B1, for which, in the assay with human SIAH1-SBD (91–282) [1], the dissociation constant Kd was found to be 5.6 µM.

B2: GST-tagged AXIN1 (353–436) (domain or fragment, human, UniProt O15169-1 353-436, looked up)
chain: RREMQESVQVNGRVPLPHIPRTYRVPKEVRVEPQKFAEELIHRLEAVQRTREAEEKLEERLKRVRMEEEGEDGDPSSGPPGPCH
For B2, the binding result in the assay with human SIAH1-SBD (91–282) [2] was “binds”.

(Values after PMC5458757 (Genes & Development, 2017).)
